Laboratory results from US9340577.
Values joined by “and” are separate entries in the source; they are usually repeats but may differ in a detail not shown here. Identical values can stand only once.

T1: H-2Kb (mouse)
T1 chain 1: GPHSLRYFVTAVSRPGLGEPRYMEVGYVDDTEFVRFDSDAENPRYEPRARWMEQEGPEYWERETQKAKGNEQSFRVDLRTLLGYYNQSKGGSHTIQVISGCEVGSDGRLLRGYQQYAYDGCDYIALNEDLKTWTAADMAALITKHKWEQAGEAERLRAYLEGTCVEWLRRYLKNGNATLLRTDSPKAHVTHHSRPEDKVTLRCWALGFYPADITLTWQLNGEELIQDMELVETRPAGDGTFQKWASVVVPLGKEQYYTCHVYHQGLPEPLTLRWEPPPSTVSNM
T1 chain 2: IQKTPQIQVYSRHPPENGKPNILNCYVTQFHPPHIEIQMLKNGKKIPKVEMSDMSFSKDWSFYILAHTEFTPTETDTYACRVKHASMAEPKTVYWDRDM

T2: H-2Db (mouse)
T2 chain 1: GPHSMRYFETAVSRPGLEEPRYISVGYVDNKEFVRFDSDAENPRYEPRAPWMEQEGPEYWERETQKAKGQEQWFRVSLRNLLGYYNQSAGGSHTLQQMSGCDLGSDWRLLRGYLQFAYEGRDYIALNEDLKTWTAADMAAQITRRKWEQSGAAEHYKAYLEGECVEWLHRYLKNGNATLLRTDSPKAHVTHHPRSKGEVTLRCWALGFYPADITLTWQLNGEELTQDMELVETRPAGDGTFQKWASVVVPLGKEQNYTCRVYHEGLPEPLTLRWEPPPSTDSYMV
T2 chain 2: T1 chain 2

T3: H-2Kd (mouse)
T3 chain 1: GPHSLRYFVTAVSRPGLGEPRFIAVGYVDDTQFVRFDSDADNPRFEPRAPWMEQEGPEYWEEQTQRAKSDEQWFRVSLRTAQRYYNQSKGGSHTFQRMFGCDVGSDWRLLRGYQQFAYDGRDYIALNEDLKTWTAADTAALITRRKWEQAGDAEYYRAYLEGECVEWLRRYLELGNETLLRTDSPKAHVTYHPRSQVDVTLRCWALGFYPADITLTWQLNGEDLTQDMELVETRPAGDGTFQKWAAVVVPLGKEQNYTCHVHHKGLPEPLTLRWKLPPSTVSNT
T3 chain 2: T1 chain 2


Target: T1, H-2Kb (mouse)
Test: competition
Conditions: modification not given

Binder	IC50
AAAAAANAAAM [F079.09]	31000 nM
AAAANAAAM [F079.08]	11000 nM
YMVPFIPL [22.0021]	70 nM
FFYRYGFV [FluA POL1 495]	350 nM
SHYAFSPM [F190.04]	250 nM
MITQFESL [Flu NS 31]	42 nM and 64 nM
SGVENPGGYCL [928.07]	> 31000 nM
ASARFSWL [HBV env 329]	323 nM and 49 nM
VSAAFYHL [HBV pol 419]	5.2 nM and 7 nM
FAPGYNPAL [1275.04]	2 nM
VSYVNTNM [HBV core 115]	33 nM and 60 nM
SVYDFYVWM [F138.03]	1.2 nM
SIQFFGEL [F079.04]	16 nM
SIQFFGERAL [F079.03]	21 nM
VYIEVLHL [FluA POL3 227]	75 nM and 21 nM
VGLSYSQTM [14.0118]	71 nM
NAIVFKGL [17.0284]	484 nM
GVYQFKSV [14.0018]	11 nM
LAVLYCLL [22.0012]	72 nM
RFYRTCKL [FluA POL1 465]	47 nM

Binder	IC50
MGLKFRQL [HBV core 122]	7.4 nM and 6.3 nM
ANFSFRNTL [16.0031]	6 nM
IGRFYIQM [FluA NP 36]	24 nM and 42 nM
LSYSAGAL [FluA M1 117]	60 nM and 31 nM
RGPGRAFVTI [1087.01]	31000 nM
LGYDYSYL [16.0004]	3.4 nM
IVTMFEAL [14.0008]	82 nM
KNKFFSYL [22.0011]	57 nM
ISHNFCNL [14.0011]	411 nM
RTFSFQLI [Flu NS 114]	26 nM and 27 nM
FQPQNGQFI [LCMV NP 396]	> 31000 nM and 9510 nM
RNPRFYNL [1079.14]	7.9 nM
SVYDFFVWL [F117.14]	1 nM
VYINTALL [FluA POL2 463]	14 nM and 65 nM
MGLIYNRM [Flu M1 128]	16 nM and 9.9 nM
MNIQFTAV [FluA HA 403]	26 nM
SSLPFQNI [FluA HA 305]	9.5 nM and 53 nM
KMITQRTI [FluA POL1 198]	300 nM
HMWNFIGV [1476.12]	202 nM

Target: T2, H-2Db (mouse)
Test: competition
Conditions: modification not given

Binder	IC50
KVPRNQDWL [F142.01]	38 nM
KQYLNLYPV [HBV pol 668]	3.4 nM
AAAAYAAAAM [F079.06]	> 44000 nM
AAAANAAAM [F079.08]	23 nM
SHYAFSPM [F190.04]	> 88000 nM
SGVENPGGYCL [928.07]	60 nM
SIQFFGEL [F079.04]	> 44000 nM
SIQFFGERAL [F079.03]	> 44000 nM
SSMHNALHI [16.0029]	7.6 nM
TGICNQNII [FluA NM 46]	21 nM and 13 nM
FQPQNGQFIHFY [928.15]	280 nM
RGPGRAFVTI [1087.01]	22000 nM
FQPQNGQFI [LCMV NP 396]	4.9 nM and 6.9 nM and 17 nM
RNPRFYNL [1079.14]	> 44000 nM
AAAAYAAM [F079.05]	> 44000 nM
ASNENMDAM [1275.03]	28 nM
TALANTIEV [FluA POL1 141]	3.7 nM and 16 nM
SQVMNLHNL [F100.04]	2.3 nM

Target: T3, H-2Kd (mouse)
Test: competition
Conditions: modification not given

Binder	IC50
SYVNTNMGL [HBV core 116]	19 nM and 12 nM
AYAEAKAAI [1114.03]	50 nM
AYAPAKAAI [1114.01]	3.5 nM
HYISMGTSGL [14.0137]	83 nM
WYIPPSLRTL [F057.08]	96 nM
SYVPSAEQIL [1081.06]	280 nM
YYVSRDTLL [F078.06]	99 nM
AYANAKAAI [1114.05]	60 nM
AYAVAKAAI [1114.09]	42 nM
SFFSSWQII [F078.07]	16 nM
HYYVSRDTL [F078.05]	43 nM
SYLTLAKHTI [F078.18]	4.4 nM
AYAGAKAAI [1114.07]	48 nM
RYLENGKETL [1074.15]	80 nM
WYWGPSLYSI [HBV env 362]	16 nM and 8.3 nM
